A short description of the data set: yeast display, Sf9 membrane polyspecificity reagent, FACS + sequencing; frameworks hold sequencing errors. The gist of the method:
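Genes from sorted yeast were amplified by colony PCR, read by MiSeq 2 × 250 sequencing and filtered on CDR length. These cells carried a synthetic nanobody library in Saccharomyces cerevisiae BJ5465 and were sorted by FACS into low and high (top ~1%) gates on anti-HA and streptavidin fluorescence. Polyreactivity is labelled according to the gate of origin.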
As for “QVQIVESGGGLVQAGGSHRLSCAASGSTFASNTKGWYTQAPGKERELVATITQSGGTRYYADSVKGRFTISRDNAKYTVYFQMNSLKPEDTAVYDCATDVGYFYTVVGGYDYWGQGTQVTVSA”, the “polyreactivity (PSR sort gate)” value was “low polyreactivity”.
Next, “QVQIVESGGGLVQAGGSIRLSCAASGYTFVIYAMGSYRPAPGKERELVAAITTIGGRTYYADSVKGRFTISRDNAKNTVYLQMNSLKPEDTAVYYCAADIRSNRLYDGGYWGQGTQVTVSS”: “low polyreactivity”; “QVQIVESGGGLVQAGGSLPLSCAASGSIFDYYVMGWYRQAPGKERELVAAINWSGDGTNYADSVKGRFTISRDNAKNTVYLQMNSLKPEDTAVYYCNADWTSDGFGTRLDYWGQGTQVTVSS”: “low polyreactivity”.
The entry for “QVQIVESGGGLVQAGGSLRFSCAASGRIFIYNAMGWYRQAPGKERELVAAISRTGGRTYYADSVKGRFTISRDISKNTVYLQMNSLKPEDTAVYYCAARNRGQYYSWGQGTQLTVSS” is “high polyreactivity”; for “QVQIVESGGGLVQAGGSLRISCAASGFIFAYNSMGWNRQAPGKERELVAAISRSGGSTRYADSVKGRFPISRDNAKNTVFLQMNSLKPEDTAVYYCAAEYLGSYGYYEYDFWGQGTQVTVSS” it is “high polyreactivity”; for “QVQIVESGGGLVQAGGSLRISCAASGIIFYAYAMGWSRQAPGKEREFVAAINNSGGRTYYADSVKGRFTISRDNAKNTVYLQMNSLKPEDTAVYYCAVYSYYRRTYRREMDYWGQGTQVTVSS” it is “high polyreactivity”.
The entry for “QVQIVESGGGLVQAGGSLRLICAASGFTFTYNAMGWYRQAPWKERELVADIDSDGSTTYADSVKGRFTISRDNAKNTVYLQMNSLKPEDTAVYYCAADYWDYSVWRWYEYWGQGTQVTVSS” is “high polyreactivity”; for “QVQIVESGGGLVQAGGSLRLICAASGRIFRYYVMGWYRQAPGKERELVATITSGGSTNYADSVKGRFTISRDNAKNTVYLQMNSLKPEDTAVYYCNRDRYPYYYAYNFWGQGTQVTVSS” it is “low polyreactivity”; for “QVQIVESGGGLVQAGGSLRLSCAACGRIFTWNVMGWYRQAPGKEREFVAAITYSGGRTRYADSVKGRFTISRDIAKNTVYLQMNSLKPEDTAFYYCAATSRGTDYWGQGTQVTVSS” it is “high polyreactivity”.
For the sequence “QVQIVESGGGLVQAGGSLRLSCAASGFIFRYNVMGWYRQAPAKERELVAANSSSGSRTYYADSVKGRFTISRDNAKNTVYLQMNSLKPEDTAVYYCATQSWVRYGQPEFDYWGHGTQVTVSS”, the “polyreactivity (PSR sort gate)” value is “high polyreactivity”.
The entry for “QVQIVESGGGLVQAGGSLRLSCAASGFIFTAYAMGWYRPGPGKERELDAAISSSGTRTYYADSVKGRFTISRDYAKNTVYLQMNCLKPEDTAVYYCNKLYLVWNFYSGYDYSGQGTQVTVSS” is “high polyreactivity”; for “QVQIVESGGGLVQAGGSLRLSCAASGFTFRYYAMGWYRQAPGQERELVAAISKSGGSTYYADSVKGRFTISRDNAKNTVDLQMNSLKPEDTAVYYCAADYAHIGYDYDYWGQGTQVTVSS” it is “high polyreactivity”; for “QVQIVESGGGLVQAGGSLRLSCAASGFTFWRNAMVWYRQAPGKERELVAAINWSGGSTYYADSVKGRFTISRDNAKNTVYLQMNSLKPEDTAVYYCAADLSSRGISQDDYWGQGTQVTVSS” it is “high polyreactivity”.
Next, “QVQIVESGGGLVQAGGSLRLSCAASGITFRFYALGWYRQATGKERELVAAISWSGGSTNYADSVKGRFTISRDNAKNTVYLQMNSLKPEDTAVYYCNVVGKYYSGGTYEYWGQGTQVTVSS”: “high polyreactivity”; “QVQIVESGGGLVQAGGSLRLSCAASGLIFKYYAMGWYRQAPGKERELVATITRGGGSTYYADSVKGRFTISRDNAKNTVYLQMNSLKPEDTAVYYCAADYWYVYPRYNPGDYWGQGTQVTVSS”: “high polyreactivity”.
The entry for “QVQIVESGGGLVQAGGSLRLSCAASGLTFEWYTMGWYRQAPGKERELVAVITVSGSSTYYADSVKGRFTISRDNAKNTVYLQMNSLKPEDTAVYYCNADWSFYSYTLYDYWGQGTQVTVSS” is “low polyreactivity”; for “QVQIVESGGGLVQAGGSLRLSCAASGNTFYVNVMGWYRQAPGKEREFVAAISTRGVSTSYADSVKGRFTISRDNAKNTVYLQMNSLKPEDTAVYYCAASFRRPQPKGTTYGYWGQGTQVTVSS” it is “high polyreactivity”.
As for “QVQIVESGGGLVQAGGSLRLSCAASGRIFDYYAMGWYRQAPGKERELVADITSGGSTYYADSVKGRFTISRDNAKNTVYLQMNSLKPEDTAVYYCNADGPGSYIWYYFVYTTPEYDYWGQGTQVTVSS”, the “polyreactivity (PSR sort gate)” value is “low polyreactivity”.
Next, “QVQIVESGGGLVQAGGSLRLSCAASGRIFYRYDMGWYRQAPGKERELVAVISGGGTYYADSVKGRFTISRDNAKNTVYLQMNSLKPEDTAVYYCAADDGVSLVSPYYGGYDYWGQGTQVTVSS”: “low polyreactivity”; “QVQIVESGGGLVQAGGSLRLSCAASGRIIRINAMGWSRQAPGKERELVAAITRGGTTYADSVKGRFTISRDNAKNTVYLQMNSLKPEDTAVYYCNARTGRSPTGFRYWGQGTQVTVSS”: “high polyreactivity”.
On to “QVQIVESGGGLVQAGGSLRLSCAASGRTFAYYAMGWYRQAPGKERELVATISGSGGTTRYADSVKGRFTISRDNAKNTVYLQMNSLKPEDTAVYYCAARYASGRRGEYWGQGTQVTVSS”, for which the “polyreactivity (PSR sort gate)” value is given as “high polyreactivity”.
The entry for “QVQIVESGGGLVQAGGSLRLSCAASGRTFAYYSMGWYRPAPGKEREFVAAISRSGGSTYYADSVKGRFTISRDNAKNTVYLQMNSLKPEDTAVYYCNARYIWKQYRYDYWGQGTQVTVSS” is “high polyreactivity”; for “QVQIVESGGGLVQAGGSLRLSCAASGRTFNRNAMGWYRQAPGKERELVAAISRGGGGTFYADSVKGRFTISRDNAKNTVYLQMNSLKPEDTAVYYCAKTLRGWHTIITDYDYWGQGTQVTVSS” it is “low polyreactivity”; for “QVQIVESGGGLVQAGGSLRLSCAASGRTFYSYAMGWYRQAPGKERELVAAIRWTGVRTYYADSVKGRFTISRDNAKNTVYLEINSLKPEDTAVYYCAVFRSSGKGYRGPRDYWGQGTQVTVSS” it is “high polyreactivity”.
Next, “QVQIVESGGGLVQAGGSLRLSCAASGRTLDSNAIGWYRKATRKERVLVAAISSAGSTNYADSVKGRFTISRDNAKNTVYLQMNSLKPEDTAVYYCAADLIGSHDYSGQGTQVTVSS”: “low polyreactivity”; “QVQIVESGGGLVQAGGSLRLSCAASGRTTSTNAMGWYRQAPGKERELVASISWRGGSTYYADSVKGRFTISRDNAKNTVYLEMNCLKPEDTAVYYCAASWPRWWRFGYWGQGTQVTVSS”: “low polyreactivity”.
Next, “QVQIVESGGGLVQAGGSLRLSCAASGSIFDSNAMGWYRQAPGKERELVASITSDGDTYYADSVKGRFTISRDNAKNTVYLQMNSVKPEDTAVYYGAAYVPYSGLDYWGQGTQVTVSS”: “low polyreactivity”.
Regarding “QVQIVESGGGLVQAGGSLRLSCAASGSIFGTNTMGWYRPAPGKEWEFVAAIRLSDSSTYYADSVKWRFTISRDNAKNTVYLQMNSLKPEDTEVYYCAVDYRAYHYYLYDYWGQGTQVTVSS”, the “polyreactivity (PSR sort gate)” value is reported as “low polyreactivity”.
For “QVQIVESGGGLVQAGGSLRLSCAASGSIFLKYAMGWYRQAPGKERELVATFSRGGSTNYADSVKGRFTISRDNAKITVYFQMNSLKPEDTAVYNCARRRTYPPGRYYYWGQGTQVTVSS”, the “polyreactivity (PSR sort gate)” value was “high polyreactivity”.
Turning to “QVQIVESGGGLVQAGGSLRLSCAASGSIFPAYAMGWYRQAPGKEREFVAAISGTGGITYYADSVKGRFTISRDNAKNTVYLQMNSLKPEDTAVYFCAAPVYNRDKHDYDYWGQGTQVTVSS”, the “polyreactivity (PSR sort gate)” value is “low polyreactivity”.
The entry for “QVQIVESGGGLVQAGGSLRLSCAASGSIFRKNAMGWYRQAPGKERELVAAITRRGGSTYYADSVKARFTISRDNAKNTVYLQMNSLKPEDTAVYYCAATGGAPYKIEWGQGTQVTVSS” is “low polyreactivity”; for “QVQIVESGGGLVQAGGSLRLSCAASGSIFTPYAMGWYRQATGKERELVADIDASGGGTYADSVKGRFTISRDNANNTVYLQMNSLKPEDTAVYYCNTDPYSSAWYNYDYWGQGTQVTVSS” it is “low polyreactivity”.
The entry for “QVQIVESGGGLVQAGGSLRLSCAASGSILYYYAMGWYRQAPGKERELVATITSGGTTNYADSVKGRFTISRDNAKNTFYLQMNRLKPEDTAVYYCATEEVYGQGNYWGQGTQVTVSS” is “low polyreactivity”; for “QVQIVESGGGLVQAGGSLRLSCAASGSTFGKYAMGWYRQAPGKERELVAAITRRTGSTYYADSVKGRFTISRDNAKNTVYLQMNSLKPEDTAVYYCAARLPQYRYDYWGQGTQVTVSS” it is “high polyreactivity”; for “QVQIVESGGGLVQAGGSLRLSCAASGSTFRLYVMGWYRQAPGKERELVARISSRGGSTYYADSVKGRFTISRDNAQNTVYLQMTSLKPEDTAVYYCAKDVDLDTWKYDYWGQGTKVTVSS” it is “low polyreactivity”.
Next, “QVQIVESGGGLVQAGGSLRLSCAASGSTFTWYAMGWYRQAPGKERELVAAIRYSGDSTYYADSVKGRFTISRDNAKNTVYLQMNSLKPEDTAVYYCAAQYYPQYRRRMNYWGQGTQVTVSS”: “high polyreactivity”; “QVQIVESGGGLVQAGGSLRLSCAASGSTFYRNAMGWYRQAPGKEREFVATISWNGGNTYYADSVKGRFTISRDNAKNTVYLQMNSVKPEDTAVYYCDARVKYRTSGGTVVSYDYWGQGTQVTVSS”: “high polyreactivity”; “QVQIVESGGGLVQAGGSLRLSCADSGIIFYYNAMGWYRQAPGKERELVAAIDDRGDSTYYADSVKGRFTISRDNAKNTVYLQMNSMKPEDTAVYYCAARDRYLYFDAMDYWGQGTLVTVSS”: “low polyreactivity”.
Turning to “QVQIVESGGGLVQAGGSLRLSCAPSGRIITRKTMGWYRQAPGKEREFVAAISQSGGRTYYADSVKGRFTISRDNAKNTVYLQMNSLKPEDTAVYYCNAQFARSSGFNYWGQGTQVTVSS”, the “polyreactivity (PSR sort gate)” value was “high polyreactivity”.
Next, “QVQIVESGGGLVQAGGSLRLSCDASGSILLWNTMGWYRQAPGKERELVADSSLSASSTYYADSVKGRFTISRDNAQNTVYLELNSLKPEDTAVYFCAADEYSPDYGQGYDYWGEGTQVTVSS”: “low polyreactivity”; “QVQIVESGGGLVQAGGSLRLSCGASGLSFYYYAMGWYRQAPGKERELVASISTGGNTYYADSVKGRFTISRVNAKNTVYLQMNSLNPEDTAVYYCAAGLYSWSGYASYNSAYGYWGQGTQVTVSS”: “low polyreactivity”.

For the origin of these results see the nanobody polyreactivity screen of Harvey et al. (2022).
